Source: PMC8842248 (2022)
*: point of attachment. Farnesyl = CC(C)=CCC/C(C)=C/CC/C(C)=C/C*

What was measured:
[1] = target: T1, PDE6D (phosphodiesterase 6 delta), wild type, polyhistidine tag removed (UniProt O43924 1-150); assay: FP; average of 3 replicates
[2] = target: T1, PDE6D (phosphodiesterase 6 delta), wild …; assay: FP; replicate 3
[3] = target: T1, PDE6D (phosphodiesterase 6 delta), wild …; assay: FP; + compound-1, average of 3 replicates
[4] = target: T1, PDE6D (phosphodiesterase 6 delta), wild …; assay: FP; + compound-1, replicate 1
[5] = target: T1, PDE6D (phosphodiesterase 6 delta), wild …; assay: FP; + compound-1, replicate 3
[6] = target: T1, PDE6D (phosphodiesterase 6 delta), wild …; assay: FP; + compound-1, replicate 2
[7] = target: T1, PDE6D (phosphodiesterase 6 delta), wild …; assay: FP; in the presence of 500 uM Compound-2

- Kd [1]: 1400 nM
- Kd [2]: 1100 nM
- Kd [3]: 1300 nM
- Kd [4]: 1000 nM
- Kd [5]: 1200 nM
- Kd [6]: 1700 nM
- Kd [7]: 55200 nM
Binder: {FAM}-KKKKKKSKTKC(Farnesyl)-OMe [fluorescein-labeled KRAS HVR peptide, FAM-KKKKKKSKTKC(OMe)-Far]
